Results published in paper PMC5971062 (Biochemistry, 2018).

Target: T1, Enhanced intracellular survival (Eis) protein from Mycobacterium tuberculosis, wild type (Mycobacterium tuberculosis, UniProt P9WFK7)
T1 sequence: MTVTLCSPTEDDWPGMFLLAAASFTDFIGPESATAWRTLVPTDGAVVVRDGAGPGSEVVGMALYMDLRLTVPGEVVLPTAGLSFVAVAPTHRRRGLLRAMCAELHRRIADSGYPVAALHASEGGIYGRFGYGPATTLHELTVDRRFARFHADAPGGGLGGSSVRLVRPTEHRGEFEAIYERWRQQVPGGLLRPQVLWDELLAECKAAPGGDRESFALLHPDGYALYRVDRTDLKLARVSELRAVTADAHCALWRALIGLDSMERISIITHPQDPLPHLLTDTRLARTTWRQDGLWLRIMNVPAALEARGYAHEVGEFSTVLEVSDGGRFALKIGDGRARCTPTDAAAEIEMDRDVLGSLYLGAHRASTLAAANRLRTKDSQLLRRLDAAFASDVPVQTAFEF
Experiment: crystal structure

B1: HupB_Mtb 9-mer peptide ATKAPAKKA (peptide)
peptide: ATKAPAKKA
  binding result: binds
